Target: T1, TA1 (OsmtSSB-1a) (Oryza sativa)
T1 chain: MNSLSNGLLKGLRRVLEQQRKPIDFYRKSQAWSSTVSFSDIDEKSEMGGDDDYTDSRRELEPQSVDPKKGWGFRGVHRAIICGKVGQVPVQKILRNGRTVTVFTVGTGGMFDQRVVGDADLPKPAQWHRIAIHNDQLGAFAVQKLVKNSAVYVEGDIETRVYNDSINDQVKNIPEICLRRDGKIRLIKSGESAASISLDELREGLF
Assay: EMSA; 2 ug protein, 750 amol probe, room temperature 10 min; competed by 2x, 20x, 200x unlabelled ssDNA
Conditions: tags: N-terminal 6xHis (pET-30a), expressed in E. coli; label: 3' biotin (biotinylated CTP)
Method: The affinity of purified 6×His-TA1 protein for ssDNA was determined using an EMSA (Thermo Cat. No. 20148X) as described in general terms by Reddy et al. (2001). A 45-nucleotide single-stranded oligonucleotide (SEQ ID NO:60) was labelled at the 3′ end with biotinylated CTP (Thermo Cat. No. 89818) according to the manufacturer's instructions. Recombinant 6×His-TA1 protein (2 μg) was added to 750 attomoles of biotin-labelled oligonucleotide and the mixture was incubated at room temperature for 10 min. A control sample lacked the 6×His-TA1 protein was applied to lane 1 in FIG. 11. Separate reactions were carried out in the presence of a 60-bp double-stranded DNA (dsDNA; control fragment from Thermo EMSA kit) to determine if the mobility shift was specific for ssDNA. Binding reaction products were separated by electrophoresis in a 5% native polyacrylamide gel in 0.5×TBE (Bio-Rad) and transferred to a nylon membrane (Bio-Rad). DNA bands were visualized using streptavidin-conjugated horseradish peroxidase (Thermo).

B1: 45-nt EMSA ssDNA probe (ssDNA)
DNA: ACTCCCTCTCCCTTGCGGATTCGAATGGTAGTACATTCTCTTCGA
B1: binds.

From US20240040982, “CEREAL GRAIN WITH THICKENED ALEURONE” (Commonwealth Scientific and Industrial Research Organisation, published 2024)
